Reference: patent US7732178B2, “Laccase enzymes and their uses” (AB Enzymes Oy, priority 2004, dated 2010)
Entries after “also recorded” stand apart in the source; their conditions may differ.

Experiments:
[1] = Specific activity towards di-methoxy-phenol (DMP); type: biochemical; settings: 25 mM MES buffer, pH 5.5
Experimental: Specific activities of the purified T. arenaria and C. thermophilum laccases were determined towards different laccase substrates.

[2] = Denim bleaching at different temperatures; set-up: key to After laccase treatment L* / After laccase treatment b* / Increase of L*: CIE L*a*b* colour coordinates (illuminant D65), reflectance; settings: for After laccase treatment L* / After laccase treatment b* / Increase of L*: face side of denim, 30 min, pH 6, enzyme 200 nkat/g, mediator 10 mg/g
Experimental: Lee Cooper jeans (MASI Company Oy, Finland) that were desized and treated with neutral ECOSTONE® cellulase were used as test material. Laccase treatments were performed in LP-2 Launder Ometer as follows. About 10 g of denim swatches (15×14 cm) were loaded into 1.2 liter containers containing 200 ml Mc Ilvaine's citrate phosphate buffer pH 5, 6 or 7 and the containers were temperated. Enzyme with or without the mediator (methyl syringate, DeniLite II Assist, Novozymes) was added as laccase activity units. Enzyme was dosed 200 nkat/g and the mediator 10 mg/g on the weight of fabric. […] The Launder Ometer was run at 50° C. for 30 min and after that the temperature in Launder was raised to 80° C. for 10 min. The swatches were carefully rinsed with warm water, dried half-dry in a tumbler and after that air dried.
The bleaching effect was evaluated by measuring the colour as reflectance values with the Minolta Chromameter CM 1000 (Minolta Co.) using L*a*b* color space coordinates (illuminant D65). The colour from both sides of the swatches was measured before and after the laccase treatment. Each measurement was the average of several measurements.
The test system and denim were as in Example 7, except that the conditions during the laccase and mediator treatment in Launder were 30 min, pH 6 and temperature 30-70° C. (DeniLite II Base also at 80° C.) and the enzyme was inactivated by alkaline treatment instead of raising the temperature in Launder as follows. After removing swatches from the containers they were soaked in warm water containing NaOH (pH 11.5) for 10 min and rinsed carefully with warm water. The swatches were dried half-dry in a tumbler and after that air dried. The bleaching effect was evaluated by measuring the colour as reflectance values as in Example 7.

[3] = Stain removal, grass soiling; set-up: key to Grass L* / Grass a* / Grass b*: CIE L*a*b* color coordinates from reflectance; settings: for Grass L* / Grass a* / Grass b*: 60 min, pH 6
Outline: (§1)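 Soiled swatches treated in McIlvaine citrate-phosphate buffer pH 6 for 60 min at 40, 50 or 60 °C. Laccase 200 nkat/g ± methyl syringate mediator 10 mg/g fabric (also 20 nkat/g and 2 mg/g at 40 °C). Stain removal from L*a*b* reflectance before versus after treatment.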

Decolorization of dyes = assay: Decolorization of dyes; set-up: key to Decolorization of Remazol Brilliant blue, Time 30 min / Decolorization of Remazol Brilliant blue, Time 60 min: −: no visually detectable change; +: visually detectable fading of the colour; ++: considerable fading of the colour; +++: complete/almost complete decolorization; settings: for Decolorization of Remazol Brilliant blue, Time 30 min / Decolorization of Remazol Brilliant blue, Time 60 min: dye 5 mg/50 ml, enzyme 100 nkat/50 ml, 50° C., pH 6
Experimental: The recombinant laccases CtLcc1, TaLcc2 and TaLcc4, derived from Trichoderma strains (Example 7) were tested for their ability to decolorize different dyes in the presence of the methyl syringate mediator (Example 7) or without it. The experiments were carried out in 100 ml shake flasks containing 50 ml of dye dissolved in citrate phosphate buffer pH 6. Dye concentration 5 mg/50 ml was used. Enzyme was dosed 100 nkat per 50 ml and the mediator 5 mg per 50 ml. Control samples contained only dye solution. The shake flasks were incubated at 50° C. for 30, 60 and 120 minutes. Samples of 3.5 ml were taken in test tubes for visual evaluation.

[4] = Stain removal, tea soiling; set-up: key to Tea L* / Tea a* / Tea b*: CIE L*a*b* color coordinates from reflectance; settings: for Tea L* / Tea a* / Tea b*: 60 min, pH 6
Outline: as §1

[5] = 40° C., enzyme 20 nkat/g + mediator 2 mg/g (Mediator only: 0 nkat/g)
[6] = 40° C., enzyme 200 nkat/g + mediator 10 mg/g (Mediator only: 0 nkat/g)
[7] = 40° C., enzyme 200 nkat/g, mediator 0 mg/g
[8] = 60° C., enzyme 200 nkat/g + mediator 10 mg/g (Mediator only: 0 nkat/g)
[9] = 60° C., enzyme 200 nkat/g, mediator 0 mg/g
[10] = CtLcc1 at 60° C., TaLcc2 at 50° C.

After laccase treatment L* ([2]; 30° C.): 31.78 | After laccase treatment b* ([2]; 30° C.): −19.15 | After laccase treatment L* ([2]; 40° C.): 34.43 | After laccase treatment b* ([2]; 40° C.): −18.77 | After laccase treatment L* ([2]; 50° C., alkaline inactivation): 36.78 | After laccase treatment b* ([2]; 50° C., alkaline inactivation): −18.96 | After laccase treatment L* ([2]; 60° C.): 37.40 | After laccase treatment b* ([2]; 60° C.): −18.29 | After laccase treatment L* ([2]; 70° C.): 34.16 | After laccase treatment b* ([2]; 70° C.): −17.91
B1: CtLcc1: Chaetomium thermophilum ALKO 4265 laccase, SEQ ID NO: 47, produced in Trichoderma reesei (protein)
chain: MKFLTYATALLGALTAVVGAIPTRSGTKKKYIRDGPGPCHTPSNRACWAPGFDINTDYEVNTPNTGVTRNYTLTLTEEDNWTGPDGVVKEKIMLVNGKTLGPTIEANWGDWIEVKVINNLLTNGTSIHWHGIHQKGSNLHDGANGVTECPIPPNGGQRTYRFRAQQYGTSWYHSHFSAQYGNGIVGPIVIHGPASLPYDIDLGPFPLTDYYYKSADELVRHTQNNGPPFSDNVLFNGTGVHPQTGHGQYAKVTLTPGKRHRLRIINMSTENHFQVSLVGHQFTVIAADMVPVHSYTTDSLFLAVGQRYDVTIDASQTPGNYWFNVTFGGGFACGGSFNPNPAAIFHYEGAPDALPTDPGVPPRDHNCLDTLDLVPVVPRNVQVNQFVKKPENTLPVELSLGGTPLFVWKVNGSAIDVDWGNPVLQYVMDRNTSYRQADNIVEVNGVNQWTYWLIENDPNGAFSLPHPMHLHGHDFLIVGRSPDVPPGSNQRYNFDPATDIYRLRGQNPTRRDVAMLPAGGWLLLAFLTDNPGAWLFHCHIAWHVSGGLSVDFLERPNDLRNSILQHDKDEFNRVCNEWRTYWPNSPHPKIDSGLKHRWVEESEWLVR
modifications: Chaetomium thermophilum ALKO4265; (1)..(607) Deduced amino acid sequence of Chaetomium thermophilum ALKO4265 CtLcc1
Specific activity on DMP [1]: 290 nkat/mg | decolorization of denim (increase of lightness) compared to Denilite II Base ([2]; 40-50 ° C. and pH 6): more efficient | Increase of L* ([2]; 30° C.): 2.44 | Increase of L* ([2]; 40° C.): 5.72 | Increase of L* ([2]; 50° C., alkaline inactivation): 8.26 | Increase of L* ([2]; 60° C.): 8.52 | Increase of L* ([2]; 70° C.): 5.23 | Grass L* [3, 5]: 79.94 | Grass a* [3, 5]: −1.20 | Grass b* [3, 5]: 16.17 | Grass L* [3, 6]: 79.74 | Grass a* [3, 6]: 0.17 | Grass b* [3, 6]: 16.48 | Grass L* [3, 7]: 80.17 | Grass a* [3, 7]: −4.14 | Grass b* [3, 7]: 17.45 | Grass L* [3, 8]: 79.92 | Grass a* [3, 8]: −1.15 | Grass b* [3, 8]: 18.55 | Grass L* [3, 9]: 79.04 | Grass a* [3, 9]: −3.69 | Grass b* [3, 9]: 18.12 | removal of grass soiling with the mediator [3, 10]: effective | Decolorization of Remazol Brilliant blue, Time 30 min (Decolorization of dyes; mediator 0 mg/50 ml): − | Decolorization of Remazol Brilliant blue, Time 60 min (Decolorization of dyes; mediator 0 mg/50 ml): − | Decolorization of Remazol Brilliant blue, Time 30 min (Decolorization of dyes; mediator 5 mg/50 ml): ++ | Decolorization of Remazol Brilliant blue, Time 60 min (Decolorization of dyes; mediator 5 mg/50 ml): +++ | decolorization of Remazol Brilliant Blue (Decolorization of dyes; in the presence of the mediator): very effectively; also recorded: to great extend or completely | Tea L* [4, 5]: 76.34 | Tea a* [4, 5]: 5.10 | Tea b* [4, 5]: 23.89 | Tea L* [4, 6]: 77.70 | Tea a* [4, 6]: 4.26 | Tea b* [4, 6]: 24.50 | Tea L* [4, 7]: 76.22 | Tea a* [4, 7]: 5.37 | Tea b* [4, 7]: 22.68 | Tea L* [4, 8]: 79.76 | Tea a* [4, 8]: 3.52 | Tea b* [4, 8]: 22.16 | Tea L* [4, 9]: 77.10 | Tea a* [4, 9]: 4.84 | Tea b* [4, 9]: 21.10 | removal of tea soiling with the mediator [4, 10]: effective
